One data set deals with T1, MBP-AUNIP Δ25-70 (UniProt Q9H7T9 1-357, del25-70).
T1 sequence: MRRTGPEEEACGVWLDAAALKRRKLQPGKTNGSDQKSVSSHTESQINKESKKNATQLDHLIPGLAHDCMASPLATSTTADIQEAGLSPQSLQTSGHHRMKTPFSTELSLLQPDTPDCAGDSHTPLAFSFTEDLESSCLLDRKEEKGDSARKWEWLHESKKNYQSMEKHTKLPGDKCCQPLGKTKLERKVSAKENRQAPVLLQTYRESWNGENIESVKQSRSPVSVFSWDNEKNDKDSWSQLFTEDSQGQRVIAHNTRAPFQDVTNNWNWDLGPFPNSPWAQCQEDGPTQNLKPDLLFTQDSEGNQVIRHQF
The data set is described as follows: EMSA; 10 mM MgCl2; up to 200 nM protein; 20 nM biotin-DNA, 0-200 nM protein, 1x LightShift binding buffer with 10 mM MgCl2, 2.5% glycerol, 0.05% NP-40, 20 min, room temperature; 10% native PAGE; pH and salt not given. To be noted: protein: recombinant; label: 5'-biotin on oligo 1; fork; 31 bp duplex, two 28 nt arms (3' arm of oligo 1, 5' arm of oligo 2). Background: Mobility shift assays separate free from complexed probe on a gel.

Another data set addresses T2, MBP-AUNIP (UniProt Q9H7T9 1-357).
T2 sequence: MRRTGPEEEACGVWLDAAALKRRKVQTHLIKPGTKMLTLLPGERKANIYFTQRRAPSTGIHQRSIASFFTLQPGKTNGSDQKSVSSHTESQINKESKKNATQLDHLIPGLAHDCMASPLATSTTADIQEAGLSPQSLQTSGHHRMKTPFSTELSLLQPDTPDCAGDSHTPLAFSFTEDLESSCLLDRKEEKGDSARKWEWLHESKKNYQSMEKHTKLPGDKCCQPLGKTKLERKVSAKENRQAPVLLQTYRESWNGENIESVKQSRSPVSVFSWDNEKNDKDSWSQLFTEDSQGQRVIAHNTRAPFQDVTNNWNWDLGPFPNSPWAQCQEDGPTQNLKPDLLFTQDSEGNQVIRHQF
The data set is described as follows: EMSA; 10 mM MgCl2; 20 nM biotin-DNA, 0-200 nM protein, 1x LightShift binding buffer with 10 mM MgCl2, 2.5% glycerol, 0.05% NP-40, 20 min, room temperature; 10% native PAGE; pH and salt not given. As to conditions: protein: recombinant, label: 5'-biotin on oligo 1.

For a further data set, the target named is T3, MBP-tagged CtIP (UniProt Q99708 1-897).
T3 construct: CtIP; also called MBP-CtIP; source: E. coli BL21, purified (Amylose resin, eluted with maltose)
T3 sequence (Q99708 whole entry): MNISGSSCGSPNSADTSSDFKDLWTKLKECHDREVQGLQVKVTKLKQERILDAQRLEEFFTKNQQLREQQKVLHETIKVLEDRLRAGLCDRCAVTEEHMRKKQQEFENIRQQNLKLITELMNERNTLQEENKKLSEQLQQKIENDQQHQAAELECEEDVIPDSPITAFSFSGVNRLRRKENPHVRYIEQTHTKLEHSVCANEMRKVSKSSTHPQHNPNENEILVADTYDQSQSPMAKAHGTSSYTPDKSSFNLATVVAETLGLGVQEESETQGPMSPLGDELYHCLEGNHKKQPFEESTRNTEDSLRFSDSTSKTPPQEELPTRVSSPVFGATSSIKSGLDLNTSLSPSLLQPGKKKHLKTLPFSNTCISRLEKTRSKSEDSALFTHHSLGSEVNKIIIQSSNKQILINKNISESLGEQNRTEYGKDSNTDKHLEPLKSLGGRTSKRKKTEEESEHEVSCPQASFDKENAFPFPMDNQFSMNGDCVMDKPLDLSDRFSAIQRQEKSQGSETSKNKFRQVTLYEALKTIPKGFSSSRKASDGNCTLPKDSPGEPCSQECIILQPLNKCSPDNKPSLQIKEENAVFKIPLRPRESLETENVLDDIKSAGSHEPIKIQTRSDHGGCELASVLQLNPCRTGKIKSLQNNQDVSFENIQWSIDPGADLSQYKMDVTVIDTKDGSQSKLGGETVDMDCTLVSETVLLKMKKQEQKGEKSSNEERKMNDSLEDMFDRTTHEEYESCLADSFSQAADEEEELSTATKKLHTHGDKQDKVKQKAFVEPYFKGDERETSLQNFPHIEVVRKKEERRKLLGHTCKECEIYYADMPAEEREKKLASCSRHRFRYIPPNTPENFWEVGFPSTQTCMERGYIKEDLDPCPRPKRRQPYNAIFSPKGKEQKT
The data set is described as follows: pull-down; GST or GST-AUNIP (wild type or mutant) on glutathione-Sepharose incubated with MBP-CtIP in NETN buffer, 2 h at 4 °C; five washes; CtIP detected by monoclonal anti-CtIP antibody. As to conditions: both partners purified.

B1: splayed arm (dsDNA)
DNA 1: GACGCTGCCGAATTCTACCAGTGCCTTGCTAGGACATCTTTGCCCACCTGCAGGTTCAC
DNA 2: ATAGTCGGATCCTCTAGACAGCTCCATGTAGCAAGGCACTGGTAGAATTCGGCAGCGTC
For B1, the binding result is reported as “no binding” with MBP-AUNIP Δ25-70 and “binds” with MBP-AUNIP (fork, 31 bp duplex, two 28 nt arms (3' arm of oligo 1, 5' arm of oligo 2)).

B2: 5'-flap (dsDNA)
DNA 1: B1 DNA 1
DNA 2: B1 DNA 2
DNA 3: GTGAACCTGCAGGTGGGCAAAGATGTCC
As to B2, in the data set with MBP-AUNIP (1:2 31 bp, 1:3 28 bp, 28 nt 5' flap of strand 2), the binding result is recorded as “binds”.

B3: 3'-flap (dsDNA)
DNA 1: B1 DNA 1
DNA 2: B1 DNA 2
DNA 3: CATGGAGCTGTCTAGAGGATCCGACTAT
As for B3, in the data set with MBP-AUNIP (1:2 31 bp, 2:3 28 bp, 28 nt 3' flap of strand 1), the binding result is reported as “binds”.

B4: GST-tagged AUNIP C-terminal region (281-357) (domain or fragment, human, UniProt Q9H7T9 281-357, looked up)
chain: KDSWSQLFTEDSQGQRVIAHNTRAPFQDVTNNWNWDLGPFPNSPWAQCQEDGPTQNLKPDLLFTQDSEGNQVIRHQF
notes: source: E. coli BL21, purified on glutathione-Sepharose resin (kept on the beads)
Turning to B4, in the data set with MBP-tagged CtIP, the binding result is “binds”.

B5: GST-tagged AUNIP (wild-type) (natural protein, human, UniProt Q9H7T9 1-357, looked up)
chain: T2 sequence
notes: AUNIP/C1orf135, human; pCold vectors may add further N-terminal vector residues; also called GST-AUNIP; recombinant GST-AUNIP; source: E. coli BL21, purified on glutathione-Sepharose resin (kept on the beads)
B5: in the data set with MBP-tagged CtIP, the binding result is “binds”.
